In article PMC11026164 (Nature Nanotechnology, 2024):

Legend:
C57BL/6J mice = test: Oral glucose tolerance test (oGTT); format: in vivo; conditions: n = 5; for effect of constituents on oGTT AUC: QD 0.6 µg, QD-INS 0.6 µg, 20 IU/kg, CS/GS 10 µg, QD-CS/GS 0.6 µg, 10 µg, insulin alone given orally 100 IU/kg, 15 min before glucose
Protocol: oGTT was performed following a 4-h fast. BG was measured using a handheld glucometer using Accu-Chek proforma strips. Blood was collected following a tail snip. BG was collected prior and for 90 min after an oral bolus of 2 g kg^–1 glucose solution. The AUC was determined based on the mmol l^–1 × min.

[1] = Insulin loading capacity on QDs (14C-INS, dialysis); format: physicochemical
Protocol: Three individual experiments (batches) were performed per group.

[2] = ζ-potential / isoelectric point by DLS (Zetasizer); format: physicochemical
Protocol: HD diameter, polydispersity index and ζ-potential were measured using the Zetasizer Nano ZS instrument (Malvern […]) at Sydney Analytical, the University of Sydney. CSIRO samples were measured on a Malvern Instruments Zetasizer Nano instrument ZEN3600 with a 4 mW 633 nm He–Ne gas laser. […] HD diameter and polydispersity index measurements were performed using backscatter (173°) data collection with three repeats of 12–15 measurements per sample. All the samples were analysed in disposable folded capillary cells. […] 1 mg/ml solutions (5 mL total volume) were prepared for each solution. pH was adjusted to pH 3 with 1 M HCl using a pH meter. Images were collected as the pH was raised by the addition of 1 M NaOH. Images show the product solution at each pH. […] Data expressed as the mean ± s.d. (n = 3 independent batches). ζ-potential of each sample was measured using DLS. Data expressed as the mean ± s.d. (n = 3 independent batches).

[3] = HPLC–MS of released insulin; format: physicochemical; conditions: release by hydrolysis for 28 days at 23 °C
Protocol: Cleavage of CS/GS and removal of QDs were promoted by enzyme co-incubation (i). […] Release was promoted by hydrolysis for 28 days at 23 °C. […] Oleic acid was used as a positive control of cellular uptake and activity. […] Data points, mean ± s.d. shown [n = 3 independent experiments (a and b); n = 3 biologically independent cells (d and e) and one-way ANOVA with Tukey’s correction; α = 0.05]. a and b created with BioRender.com.

STZ-treated rats [4] = test: ITT in STZ-treated rats; format: in vivo, Wistar rats; conditions: SC-INS 5–40 IU kg^–1; QD-INS–CS/GS 10–150 IU kg^–1; n = 5
Protocol: After a month of acclimation and animal handling, rats were given a single intraperitoneal injection of STZ (65 mg kg^–1) and provided with high-glucose water (10%) for 2 days. Animals were monitored and BG checked for 10 days post-injection. Diabetic rats were identified following two repeat BG measurements at >11.1 mmol l^–1.
ITT was performed as above; rats were treated with 5–40 IU kg^–1 SC-INS or 10–150 IU kg^–1 QD-INS–CS/GS. All the ITT data presented in this manuscript used n = 5 mice per group.

STZ-treated rats [5] = test: Chronic dosing in STZ-treated rats; format: in vivo, Wistar rats; conditions: 40 IU kg^–1 day^–1 subcutaneous
Protocol: Rats were maintained on either treatment for 2–6 weeks, with BG measured morning and evening (prior and 1 h post-injection).
Following experimentation, the rats were euthanized by a single intraperitoneal injection of 75 mg kg^–1 ketamine and 10 mg kg^–1 xylazine in saline. Blood, liver and pancreas tissue samples were collected. Plasma was collected and analysed for biochemistry and lipid parameters as above.

[6] = Tissue biodistribution of 14C-INS in mice; format: in vivo, C57BL/6J mice; conditions: for tissue distribution, in words: SC-INS 2 IU kg^–1 s.c., QD-INS–CS/GS and Oral-INS 20 IU kg^–1 by gavage
Protocol: (§1) For biodistribution studies, the mice were not fasted before either a subcutaneous injection of ^14C-INS (100,000 DPM, 2 IU kg^–1) or a gavage of QD-^14C-INS–CS/GS or ^14C-INS (100,000 DPM, 20 IU kg^–1). Gavage was performed using an oesophageal gavage needle and delivered in a single rapid dose (100 µl). Blood samples were collected from a tail snip (20 µl) over 0–8 h. Mice were euthanized by a single intraperitoneal injection of 100 mg kg^–1 ketamine and 10 mg kg^–1 xylazine in saline at 0.5, 2.0 and 24.0 h post-gavage. Then, 200–250 mg of tissue samples was collected from the liver, spleen, kidneys, lungs, muscles, fat and small intestine (duodenum) along with 100 μl of blood.
(§2) Tissue and blood samples were weighed, mixed with 1 ml solvable solution and incubated at 60 °C for 4 h to dissolve. Then, 0.2 ml of 30% H2O2 was added to reduce the dark colour saturation. […] Samples were mixed with 10 ml scintillation fluid (five measurements per sample). Baseline measurements were collected from control mice (n = 3) that were not treated with radioactive samples. Data were collected and analysed as disintegrations per minute.

Stability by NMR = format: physicochemical; conditions: 1 mg/ml in MQ water, 23 °C, 60% humidity with light exposure, 7 and 28 days
Protocol: Individual sample stock was prepared in 90% MQ water and 10% D2O at pH 7. For NMR data acquisition, 550 µl samples from each stock were transferred to a 5 mm NMR tube. All one-dimensional ^1H experiments (water suppression pulse sequence, zgesgp; time domain, 32 K; relaxation delay, 2 s; spectral width, 12.5 ppm; number of scans, 256) were collected on a Bruker 800 MHz spectrometer using a Z-gradient TCI probe at 298 K. Two-dimensional [^1H,^1H] NOESY spectra were collected on a 600 MHz spectrometer with a cryoprobe at 298 K. Data were collected and processed using TopSpin. The water offset was set to 4.697 ppm. Before Fourier transformation from the time domain to the frequency domain, the time-domain data were zero filled twice, and an exponential decay function with a line-broadening factor of 5 Hz was multiplied. Data were processed using TopSpin. For stability measurements, the samples were stored at a lab temperature of ~295 ± 2 K.
Extended Data Fig. 4 NMR characterization and stability of QD-INS–CS/GS and 2D [^1H,^1H]-NOESY NMR characterization of CS/GS. […] Stability of samples were evaluated at 1 mg/ml, in MQ water solution, 23 °C, 60% humidity with light exposure for 7 and 28 days. […] (b) Left panel: 2D [^1H, ^1H]-NOESY spectrum of maltose. Right panel: 2D [^1H, ^1H]-NOESY spectrum of chitosan and glucose (CS/GS) copolymer. […]

[7] = Appearance and solubility by optical density at pH 3 to 9; format: physicochemical; conditions: 1 mg/ml solutions (5 mL), pH raised from 3 to 9 with 1 M NaOH, mean of n = 3 independent batches
Protocol: 1 mg/ml solutions (5 mL total volume) were prepared for each solution. pH was adjusted to pH 3 with 1 M HCl using a pH meter. Images were collected as the pH was raised by the addition of 1 M NaOH. Images show the product solution at each pH. […] Data expressed as the mean ± s.d. (n = 3 independent batches). ζ-potential of each sample was measured using DLS. Data expressed as the mean ± s.d. (n = 3 independent batches).

NOD/ShiLtJ mice = test: Insulin tolerance test (ITT) in NOD diabetic mice; format: in vivo
Protocol: Ten-week-old female NOD/ShiLtJ mice were obtained from the Animal Resource Centre in Perth. Animals were housed at the ANZAC Research Institute animal house on a 12-h light/dark cycle and provided with ad libitum access to food and water; 20–25 °C; 50–60% relative humidity; and bedding, ventilated caging systems and enrichment as per the ARRIVE guidelines. NOD/ShiLtJ mice were monitored weekly for BG changes, with mice developing T1D between weeks 12 and 24 in 90% of female mice. Diabetic mice were identified following two repeat BG measurements at >11.1 mmol l^–1.
ITT was performed with/without a 4-h fast. BG was measured using a handheld glucometer using Accu-Chek proforma strips. Blood was collected from a tail snip. […] The AUC was determined based on mmol l^–1 × min.

[8] = Blood pharmacokinetics of 14C-INS in mice; format: in vivo, C57BL/6J mice; conditions: subcutaneous 2 IU kg^–1, 14C-INS in blood, n = 3
Protocol: as §1, §2

NOD mice = test: Two-week chronic dosing in NOD mice; format: in vivo, NOD/ShiLtJ mice; conditions: chronic 2-week subcutaneous dosing
Protocol: Early and moderate diabetic mice were given a single treatment of SC-INS (1 IU kg^–1) or QD-INS–CS/GS (25 IU kg^–1), whereas late diabetics were given 4 and 100 IU kg^–1, respectively. An ITT was performed with BG collected at 0.25, 0.50, 0.75 and 1.00 h. […] BG was recorded daily and was maintained below 11.1 mmol l^–1 for the duration of treatment. […] BG was recorded daily and was maintained between 15 and 25 mmol l^–1 for the duration of treatment. […] Data points, mean ± s.d. shown (n = 5 biologically independent animals; one-way ANOVA with Tukey’s correction (a) and two-tailed unpaired t-test; α = 0.05 (c, e and f)).

[9] = 0.5 h, subcutaneous 2 IU kg^–1, n = 3
[10] = 2 h, subcutaneous 2 IU kg^–1, n = 3

QD-INS: insulin bound to 3-MPA-capped Ag2S QDs by EDC/NHS chemical crosslinking
effect of constituents on oGTT AUC (C57BL/6J mice): no differences compared to controls | maximum insulin retention (loading capacity of insulin onto QDs) ([1]; 14C-INS, 10 kDa dialysis, QDs 0.5–35.2 µg ml^–1, insulin 5.0 µg ml^–1, n = 3 batches): 80% | insulin molecules per QD ([1]; based on the molar ratios): 1–2 | ζ-potential at pH 7 [2]: negative | ζ-potential between pH 3 and pH 6 ([2]; n = 3 independent batches): near-zero | released insulin present as monomer [3]: 87.5%

insulin human recombinant
dose dependence in ITT (STZ-treated rats [4]): dose-dependent effect | effect of constituents on oGTT AUC (C57BL/6J mice): No effect on AUC | hypoglycaemia (BG < 3.0 mmol l^–1) (C57BL/6J mice; high dose 5 IU kg^–1 subcutaneous): induced hypoglycaemia | time of return of BG to baseline (STZ-treated rats [5]): ≤ 8 h | distribution in the blood [6, 9]: 40% | distribution in the liver [6, 9]: 40% | distribution in the muscles/fat [6, 9]: 20% | distribution in the kidneys [6, 10]: 10% | distribution in the liver [6, 10]: 50% | distribution in the small intestine [6, 10]: 20% | tissue distribution, in words ([6]; listed as Oral-INS): remained in the small intestine | tissue distribution, in words ([6]; listed as SC-INS): greater distribution in the muscles and fat | stability of samples by NMR (Stability by NMR): minimal changes | pH at which the material is insoluble [7]: 5 | effect of escalating dosage on BG in ITT (NOD/ShiLtJ mice; SC-INS 0–2 IU kg^–1, QD-INS–CS/GS 0–50 IU kg^–1 by gavage): dose-dependent reduction in BG | time to decrease of BG (NOD/ShiLtJ mice; subcutaneous 1 IU kg^–1): ≤ 15 min | reduction in ITT AUC (NOD/ShiLtJ mice; subcutaneous 1 IU kg^–1, single dose, n = 5): 40% | Cmax [8]: 0.1 IU ml^–1 | Tmax [8]: 15 min | T½ [8]: 15 min | time of return of BG to baseline post-treatment (NOD mice): 8 h
